Laboratory results from the Immune Epitope Database (IEDB).

Tests used:
HLA-B*83:01 = assay: IEDB peptide-MHC binding, purified MHC/competitive/fluorescence; filed as Kd, often an IC50 or EC50 that approximates it; ≥ and ≤ were set here for values at or beyond the usual limits of such assays; settings: source organism: Escherichia coli F11
HLA-B*15:42 = assay: as above; settings: source organism: Escherichia coli F11
HLA-B*45:06 = assay: as above; settings: source organism: Escherichia coli F11
HLA-A*02:01 [1] = assay: as above; settings: source organism: Escherichia coli F11
HLA-B*40:13 = assay: as above; settings: source organism: Escherichia coli F11
HLA-A*11:01 [2] = assay: as above; settings: source organism: Homo sapiens
HLA-A*26:02 = assay: as above; settings: source organism: Homo sapiens
HLA-A*68:02 [3] = assay: as above; settings: source organism: Homo sapiens
HLA-B*15:09 = assay: as above; settings: source organism: Homo sapiens
HLA-B*08:01 [4] = assay: as above; settings: source organism: Homo sapiens
HLA-A*26:03 = assay: as above; settings: source organism: Homo sapiens
HLA-B*15:17 = assay: as above; settings: source organism: Homo sapiens
HLA-B*08:03 = assay: as above; settings: source organism: Homo sapiens
HLA-B*37:01 = assay: IEDB peptide-MHC binding, purified MHC/competitive/fluorescence; ≥ and ≤ were set here for values at or beyond the usual limits of such assays; settings: source organism: Pan troglodytes
HLA-A*11:01 [5] = assay: as above; settings: source organism: Pan troglodytes
HLA-B*07:02 [6] = assay: as above; settings: source organism: Pan troglodytes
HLA-A*24:02 [7] = assay: as above; settings: source organism: Pan troglodytes
HLA-B*14:02 = assay: as above; settings: source organism: Pan troglodytes
HLA-B*53:01 = assay: as above; settings: source organism: Pan troglodytes
HLA-A*01:01 [8] = assay: as above; settings: source organism: Pan troglodytes
HLA-B*44:03 = assay: as above; settings: source organism: Pan troglodytes
HLA-A*68:02 [9] = assay: as above; settings: source organism: Pan troglodytes
HLA-B*35:01 = assay: as above; settings: source organism: Pan troglodytes
HLA-B*18:01 [10] = assay: as above; settings: source organism: Pan troglodytes
HLA-A*31:01 = assay: as above; settings: source organism: Pan troglodytes
HLA-B*08:01 [11] = assay: as above; settings: source organism: Pan troglodytes
HLA-B*51:01 = assay: as above; settings: source organism: Pan troglodytes
HLA-A*25:01 = assay: as above; settings: source organism: Pan troglodytes
HLA-B*40:02 = assay: as above; settings: source organism: Pan troglodytes
HLA-A*02:01 [12] = assay: as above; settings: source organism: Pan troglodytes
HLA-B*58:01 [13] = assay: as above; settings: source organism: Pan troglodytes
HLA-A*03:01 [14] = assay: as above; settings: source organism: Pan troglodytes
HLA-A*29:02 = assay: as above; settings: source organism: Pan troglodytes
HLA-C*14:02 = assay: IEDB peptide-MHC binding, purified MHC/direct/fluorescence; filed as Kd, often an IC50 or EC50 that approximates it; ≥ and ≤ were set here for values at or beyond the usual limits of such assays; settings: source organism: Homo sapiens
HLA-A*02:16 = assay: as above; settings: source organism: Influenza A virus(A/swine/Henan/2/2004(H9N2))
HLA-A*11:01 [15] = assay: as above; settings: source organism: Influenza A virus (A/tern/Australia/1/04(H2N5))
HLA-B*15:01 = assay: as above; settings: source organism: Influenza A virus (A/tern/Australia/1/04(H2N5))
HLA-A*02:03 = assay: as above; settings: source organism: Influenza A virus(A/swine/Henan/2/2004(H9N2))
HLA-A*02:12 = assay: as above; settings: source organism: Influenza A virus(A/swine/Henan/2/2004(H9N2))
HLA-B*07:02 [16] = assay: as above; settings: source organism: Influenza A virus (A/tern/Australia/1/04(H2N5))
HLA-A*24:02 [17] = assay: as above; settings: source organism: Influenza A virus (A/tern/Australia/1/04(H2N5))
HLA-A*02:19 = assay: as above; settings: source organism: Influenza A virus(A/swine/Henan/2/2004(H9N2))
HLA-A*01:01 [18] = assay: as above; settings: source organism: Influenza A virus (A/tern/Australia/1/04(H2N5))
HLA-A*02:06 = assay: as above; settings: source organism: Influenza A virus(A/swine/Henan/2/2004(H9N2))
HLA-B*18:01 [19] = assay: as above; settings: source organism: Influenza A virus (A/tern/Australia/1/04(H2N5))
HLA-B*27:05 = assay: as above; settings: source organism: Influenza A virus (A/tern/Australia/1/04(H2N5))
HLA-B*08:01 [20] = assay: as above; settings: source organism: Influenza A virus (A/tern/Australia/1/04(H2N5))
HLA-B*46:01 = assay: as above
HLA-B*44:02 = assay: as above; settings: source organism: Influenza A virus (A/tern/Australia/1/04(H2N5))
HLA-A*02:01 [21] = assay: as above; settings: source organism: Influenza A virus (A/Puerto Rico/8/34/Mount Sinai(H1N1))
HLA-A*02:11 = assay: as above; settings: source organism: Influenza A virus(A/swine/Henan/2/2004(H9N2))
HLA-B*40:01 = assay: as above; settings: source organism: Influenza A virus (A/tern/Australia/1/04(H2N5))
HLA-B*58:01 [22] = assay: as above; settings: source organism: Influenza A virus (A/tern/Australia/1/04(H2N5))
HLA-A*03:01 [23] = assay: as above; settings: source organism: Influenza A virus (A/tern/Australia/1/04(H2N5))
HLA-B*15:02 = assay: as above; settings: source organism: dengue virus type 3

Question: What does the source list for GLIPQWVTL?
Answer: Kd (HLA-B*83:01): ≥ 5 µM; Kd (HLA-B*15:42): ≥ 5 µM; Kd (HLA-B*45:06): ≥ 5 µM; Kd (HLA-A*02:01 [1]): ≤ 0.0001 µM; Kd (HLA-B*40:13): 0.458 µM

Question: What does the source list for TYSPALNKM?
Answer: Kd (HLA-A*11:01 [2]): ≥ 20 µM; Kd (HLA-A*26:02): 0.531 µM; Kd (HLA-A*68:02 [3]): 3.22 µM; Kd (HLA-B*15:09): ≥ 20 µM; Kd (HLA-B*08:01 [4]): ≥ 20 µM; Kd (HLA-A*26:03): ≥ 20 µM; Kd (HLA-B*15:17): ≥ 20 µM; Kd (HLA-B*08:03): ≥ 20 µM

Question: How did the IC50 (HLA-B*37:01) turn out when RPPYSSYGY was run?
Answer: ≥ 20 µM

Question: What about the IC50 (HLA-A*11:01 [5]) of the same sequence?
Answer: ≥ 20 µM

Question: And the IC50 (HLA-B*07:02 [6])?
Answer: ≥ 20 µM

Question: And the IC50 (HLA-A*24:02 [7])?
Answer: ≥ 20 µM

Question: And the IC50 (HLA-B*14:02)?
Answer: ≥ 20 µM

Question: What about the IC50 (HLA-B*53:01) of the same sequence?
Answer: ≥ 20 µM

Question: What about the IC50 (HLA-A*01:01 [8]) of the same sequence?
Answer: ≥ 20 µM

Question: And the IC50 (HLA-B*44:03)?
Answer: ≥ 20 µM

Question: What about the IC50 (HLA-A*68:02 [9]) of the same sequence?
Answer: ≥ 20 µM

Question: What about the IC50 (HLA-B*35:01) of the same sequence?
Answer: 0.0907 µM

Question: What about the IC50 (HLA-B*18:01 [10]) of the same sequence?
Answer: ≥ 20 µM

Question: And the IC50 (HLA-A*31:01)?
Answer: ≥ 20 µM

Question: What about the IC50 (HLA-B*08:01 [11]) of the same sequence?
Answer: ≥ 20 µM

Question: And the IC50 (HLA-B*51:01)?
Answer: ≥ 20 µM

Question: What about the IC50 (HLA-A*25:01) of the same sequence?
Answer: ≥ 20 µM

Question: And the IC50 (HLA-B*40:02)?
Answer: ≥ 20 µM

Question: And the IC50 (HLA-A*02:01 [12])?
Answer: ≥ 20 µM

Question: What about the IC50 (HLA-B*58:01 [13]) of the same sequence?
Answer: ≥ 20 µM

Question: What about the IC50 (HLA-A*03:01 [14]) of the same sequence?
Answer: ≥ 20 µM

Question: And the IC50 (HLA-A*29:02)?
Answer: 0.252 µM

Question: What about the Kd (HLA-C*14:02) of the same sequence?
Answer: ≥ 20 µM

Question: How did the Kd (HLA-A*02:16) turn out when LLTEVETYV was run?
Answer: ≤ 0.001 µM

Question: What about the Kd (HLA-A*11:01 [15]) of the same sequence?
Answer: ≥ 20 µM

Question: What about the Kd (HLA-B*15:01) of the same sequence?
Answer: ≥ 20 µM

Question: And the Kd (HLA-A*02:03)?
Answer: ≤ 0.001 µM

Question: What about the Kd (HLA-A*02:12) of the same sequence?
Answer: ≤ 0.001 µM

Question: What about the Kd (HLA-B*07:02 [16]) of the same sequence?
Answer: ≥ 20 µM

Question: What about the Kd (HLA-A*24:02 [17]) of the same sequence?
Answer: ≥ 20 µM

Question: What about the Kd (HLA-A*02:19) of the same sequence?
Answer: 0.002 µM

Question: What about the Kd (HLA-A*01:01 [18]) of the same sequence?
Answer: ≥ 20 µM

Question: And the Kd (HLA-A*02:06)?
Answer: ≤ 0.001 µM

Question: What about the Kd (HLA-B*18:01 [19]) of the same sequence?
Answer: ≥ 20 µM

Question: And the Kd (HLA-B*27:05)?
Answer: ≥ 20 µM

Question: What about the Kd (HLA-B*08:01 [20]) of the same sequence?
Answer: ≥ 20 µM

Question: What about the Kd (HLA-B*46:01; source organism: Influenza A virus (A/tern/Australia/1/04(H2N5))) of the same sequence?
Answer: ≥ 20 µM

Question: And the Kd (HLA-B*44:02)?
Answer: ≥ 20 µM

Question: And the Kd (HLA-A*02:01 [21])?
Answer: 0.012 µM

Question: What about the Kd (HLA-A*02:11) of the same sequence?
Answer: ≤ 0.001 µM

Question: And the Kd (HLA-B*40:01)?
Answer: ≥ 20 µM

Question: What about the Kd (HLA-B*58:01 [22]) of the same sequence?
Answer: ≥ 20 µM

Question: What about the Kd (HLA-A*03:01 [23]) of the same sequence?
Answer: ≥ 20 µM

Question: What does the source list for GMGEAAAIF?
Answer: Kd (HLA-B*46:01; source organism: Dengue virus 1 Singapore/S275/1990): ≥ 20 µM; Kd (HLA-B*15:02): 0.158 µM
